Source: a protein production outcome set (Wang et al. 2014)

Test: label from the status in PepcDB records

Row | Sequence | protein production
1 | MSTKKPAAAYSEASIKVLKGLEPVKQRPGMYTRTENPLHIIQEVIDNASDEALGGFGKQITVTLHPDQSVSVEDDGRGIPFGLHPEEKVPVVEIVFTRLHAGGKFDKAKGGAYTFSGGLHGVGVSVTNALATRLDVTVWRDGKIAQLGFADGDVVKPLATQGAGRGEKKSGTRVTVWPNPKYFDSPNLPLGELQRLLRSKAVLLPGVEVVLVNEKTGERQSWKYEDGLRGYLLDEMNGSELLIPLFEGERFADSRSGDDTFAEGEGASWVVAWSEEGSLVRESYVNLIPTPAGGTHESGLRDGLYQAVKSFVELHNLQPKGVKLLAEDVFARVSFVLSAKVLDPQFQGQIKERLNSRDAVKLVSSFTRPALELWLNQHVEHGKKLAELVIKQAQARTRAGQKIEKKKSSGVAVLPGKLTDCETEDIARNELFLVEGDSAGGSAKMGRDKEYQAILPLRGKVLNTWETERDRLFANNEVHDISVAIGVDPHGPDDSVDVSNLRYGKICILSDADVDGAHIQVLLLTLFFKHFPQLIERGHVFVARPPLFRVDAPARGKKPAQKLYALDEGELEAILDKLRKDGVRESQWTISRFKGLGEMSAEQLWDTTMNPDTRRLMPVALGELDFEATVARMTMLMGKGEAAARRNWLEEKGNEVEADI | failed
2 | MSTLPTPPRPRPVDIIIPVYKGLEETRLCLESVLATLPAADGLIVIDDHSPDPALVAYLKDRAAGDRRIRLLHNPENLGFVGTVNRGMALEPERDVLLLNSDTEVAGDWVARLRAAAYADRRIGTVTPFSNNATICSWPRFCQDNPLPPGLDVAGVDRAFAAANPGLSIDIPTGVGFAFYIRRDCLDEVGLFNAEAFGKGYGEENDFCRRAHHRGWRNVLAADTFVYHSGNVSFGVNQERLDSAMRQLLALHPDYRRVVQLHINQDPAQNMRWRAALGILRQSALPVLLFVTHNHGGGTLSHVHELAKALEGRAWGLLLTPGPRNTAVVTLPASLGGDALPFDLEQDWDGLLDLLRYAGVNRLHLHHMLGVPERLLDLPEQLSIPFDFTAHDFHAGCPRVMLCGPGSRYCGQPEERALCDACLAQAPKTEAGDITSWRAAMVARLSRAERLFAPSADTANRLKRMLPALSFRAIPHPDAQGLATNAPPPLLRPCGTTEPLRILVLGALSRAKGADLVEATAREAARGDLPLEIHLLGYGYRPLHRARGRLTAHGRYHPEEIAGHLERIAPHVAWLPAGWPETYSYTLSEVMAAGLPVVVSDLGAPPERILGRPLSWVLPWNVDASTAAAFFGRLRAGEIPASPEAPALSPQSTPRVDFYREGYLAEVFPEKARARLPEREIGELIGQALDRAGARRRRLQCWGDLKVVRQRIWRSLITLLAHPSLFPLVSRIPVSFQERLKRLIKG | failed
3 | MSTNQEKLFGRLLLKNDILQLIKNTDKISVSKIFSNFLLETKVNPILGMTSISSNKIKCNRCGTVHIKNSVKLPIGVFYCPSCIQLGRVRSDDFLYFLPQKNFPKKSYINWSGKLTENQKSISNALCQEINSHQQIIVQAVTGAGKTEMIYQVIEQILESGGVVGLASPRIDVCLELHQRLSRDFSCKIPLLYHDGDSYFRAPLIIMTSHQLLRFKEAFDLLIIDEVDAFPFRDNEMLYVAAEKARKIEGNLIYLTATSTDKLEKDIKKQKLYPLFLPRRFHNFPLVVPKFFWKNKFDKKLIEQRNSGFPLLIFAAEIEFGQEFAKQLQLKFPKEKIASVASTTKDRLEIVKAFRNKEITILIATSILERGVTFPNVDVFVINSEHPNFTKSALIQMAGRVGRSPERPTGLVSFFHYGKSKAMCQAVREIKKMNQLGCFS | failed
4 | MSTNYIDCQLLNKMERQPSFSSFDCGDPFLDSFAPKKLANADANNDSRVYVAVDGDIGVGYATMKVFMLSNDEYKILSGKYPRQVPVVMLDQIAVDKAYQGKGIGKRLMRKVLEATVLVNELAAAKGLALWAHPRAKDFYESLGFEAIPDATKQVQDVELTLMFIHVETILDALK | failed
5 | MSTPDIGTFTVRPLDPTRDAELLHGWVTHPKSAFWMMQEARLHDVEREYMAIAASEYHDAFLGLLDDEPVFLMEKYDPAHVELVGLYEPEPGDVGMHFLVAPTDTPVHGFTRAVITAVMEHLFADPATRRVVVEPDVGNKAVHALNEAVGFVPEREIQKPEKKALLSFCTREQFAAAVRGAAV | not failed
